Results published in patent US20110076262A1 (Genentech, published 2011).
Where two headings read alike, the source gives them in different places.

What was measured:
Human FGF19 [1] = molecular target: T1, Human FGF19 (human, UniProt O95750 25-216); experiment: SPR (BIAcore 2000), IgG on chip, soluble human FGF19
T1 construct: Recombinant soluble protein; also called huFGF19; Fibroblast growth factor 19

Human FGF19 [2] = molecular target: T1, Human FGF19; experiment: as above; remark: listed apart in the source
Human FGF19 [3] = molecular target: T1, Human FGF19; experiment: as above; remark: listed apart in the source
Cynomolgus FGF19 = molecular target: T2, Cynomolgus FGF19 (cynomolgus monkey); experiment: SPR (BIAcore 2000), IgG on chip, soluble cynomolgus FGF19
T2 construct: also called Cyno FGF19; cynoFGF19

Human FGF19 [4] = molecular target: T1, Human FGF19; experiment: solid phase receptor binding assay: antibody blocks FGF19 binding to plate-captured FGFR4-Fc
Description: (§1) Maxisorb 96 well plates were coated overnight at 4° C. with 50 μl of 2 μg/ml anti-human immunoglobulin Fcγ fragment specific (Jackson Immunoresearch) and used to capture 1 μg/ml FGFR-Fc chimeric proteins (R & D Systems). The non-specific binding sites were saturated with PBS/3% BSA for 1 hour and FGF19 (0.25 μg/ml) was incubated for 2 h in PBS/0.3% BSA in the presence of oligosaccharides (0.5 μg/ml; Neoparin Inc.) and the indicated anti-FGF19 antibody (0-10 μg/ml). FGF19 binding was detected using a biotinylated FGF19 specific polyclonal antibody (0.5 μg/ml; BAF969; R & D Systems) followed by streptavidin-HRP and TMB colorimetric substrate.
(§2) Humanized anti-FGF19 antibody 1A6.v1 was characterized as follows: [0531] (1) In an assay to test ability of 1A6.v1 to block binding of FGF19 to its receptor, FGFR4, 1A6.v1 was able to block FGF19 binding to its receptor at least as well as one comparator antibody—namely a chimeric antibody (which comprised the variable regions from the murine parent 1A6 antibody (variable domains depicted in FIG. 8) fused to a human Fc region). […] [0532] (2) 1A6.v1 was also tested for cross-species binding among human and primate (Cynomolgus macaque monkey). […] [0533] (3) 1A6.v1 was tested for in vitro efficacy using a colon tumor cell line (HCT116 cells). […] [0534] […]

Human FGF19 [5] = molecular target: T1, Human FGF19; experiment: Solid phase receptor binding assay: FGFR4-Fc captured on an anti-human Fc plate, FGF19 (0.25 µg/ml) incubated with titrated anti-FGF19 antibody, bound FGF19 detected with biotinylated polyclonal anti-FGF19 / streptavidin-HRP (OD 450 nm); blocked ligand-receptor pair FGF19/FGFR4
Description: as §1, §2

Human FGF19 [6] = molecular target: T1, Human FGF19; experiment: SPR (Biacore), 1A6-graft as IgG, soluble human FGF19; reference chimeric 1A6

T1 sequence (O95750 25-216 limits assumed): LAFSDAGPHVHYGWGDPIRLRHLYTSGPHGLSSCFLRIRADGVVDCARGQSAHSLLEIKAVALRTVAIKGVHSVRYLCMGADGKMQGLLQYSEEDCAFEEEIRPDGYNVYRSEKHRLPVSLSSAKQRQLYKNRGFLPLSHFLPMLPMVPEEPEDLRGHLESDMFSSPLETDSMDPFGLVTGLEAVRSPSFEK

KD (fold weaker), against chimeric 1A6 (Human FGF19 [2]) | Ka (fold slower), against chimeric 1A6 (Human FGF19 [2]) | Kd (fold faster), against chimeric 1A6 (Human FGF19 [2]) | Binder | also measured
9.1 fold | 7.7 fold | 1.2 fold | hu1A6.S34A (HVR-L1) (antibody, V domains shown) VH: EVQLVESGGGLVQPGGSLRLSCAASGFSLTTYGVHWVRQAPGKGLEWVGVIWPGGGTDYNAAFISRFTISRDNSKNTLYLQMNSLRAEDTAVYYCVRKEYANLYAMDYWGQGTLVTVSS VL: DIQMTQSPSSLSASVGDRVTITCKASQDINSFLAWYQQKPGKAPKLLIYRANRLVDGVPSRFSGSGSGTDFTLTISSLQPEDFATYYCLQYDEFPLTFGQGTKVEIKR | –
14 fold | 12 fold | 1.2 fold | hu1A6.S34T (HVR-L1) (antibody, V domains shown) VH: EVQLVESGGGLVQPGGSLRLSCAASGFSLTTYGVHWVRQAPGKGLEWVGVIWPGGGTDYNAAFISRFTISRDNSKNTLYLQMNSLRAEDTAVYYCVRKEYANLYAMDYWGQGTLVTVSS VL: DIQMTQSPSSLSASVGDRVTITCKASQDINSFLTWYQQKPGKAPKLLIYRANRLVDGVPSRFSGSGSGTDFTLTISSLQPEDFATYYCLQYDEFPLTFGQGTKVEIKR | –
10.5 fold | 12.5 fold | 0.9 fold | hu1A6.V34A (HVR-H1) (antibody, name in Kabat numbering, V domains shown) VH: EVQLVESGGGLVQPGGSLRLSCAASGFSLTTYGAHWVRQAPGKGLEWVGVIWPGGGTDYNAAFISRFTISRDNSKNTLYLQMNSLRAEDTAVYYCVRKEYANLYAMDYWGQGTLVTVSS VL: DIQMTQSPSSLSASVGDRVTITCKASQDINSFLSWYQQKPGKAPKLLIYRANRLVDGVPSRFSGSGSGTDFTLTISSLQPEDFATYYCLQYDEFPLTFGQGTKVEIKR | –
5.7 fold | 6.3 fold | 0.9 fold | hu1A6.V50L (HVR-H2) (antibody, name in Kabat numbering, V domains shown) VH: EVQLVESGGGLVQPGGSLRLSCAASGFSLTTYGVHWVRQAPGKGLEWVGLIWPGGGTDYNAAFISRFTISRDNSKNTLYLQMNSLRAEDTAVYYCVRKEYANLYAMDYWGQGTLVTVSS VL: DIQMTQSPSSLSASVGDRVTITCKASQDINSFLSWYQQKPGKAPKLLIYRANRLVDGVPSRFSGSGSGTDFTLTISSLQPEDFATYYCLQYDEFPLTFGQGTKVEIKR | –

Continued, binder first:

Binder | KD (fold weaker), against chimeric 1A6 (Human FGF19 [2]) | Ka (fold slower), against chimeric 1A6 (Human FGF19 [2]) | Kd (fold faster), against chimeric 1A6 (Human FGF19 [2]) | also measured
chimeric anti-FGF19 antibody 1A6 (antibody, V domains shown, also called chimeric 1A6; ch1A6) VH: QVQLKQSGPGLVQPSQSLSITCTVSGFSLTTYGVHWVRQSPGKGLEWLGVIWPGGGTDYNAAFISRLSITKDNSKSQVFFKMNSLLANDTAIYFCVRKEYANLYAMDYWGQGTLLTVSA VL: DIKMTQSPSSMYASLGERVTIPCKASQDINSFLSWFQQKPGKSPKTLIYRANRLVDGVPSRFSGSGSGQDYSLTISSLEYEDMGIYYCLQYDEFPLTFGAGTKVEIKR | 1 fold | 1 fold | 1 fold | Kd (Human FGF19 [1]): 0.036 nM; koff (Human FGF19 [1]): 5.3e-05 s⁻¹; kon (Human FGF19 [1]): 1.47e+06 M⁻¹ s⁻¹; Kd (Human FGF19 [3]): 0.032 nM; koff (Human FGF19 [3]): 5.4e-05 s⁻¹; kon (Human FGF19 [3]): 1.7e+06 M⁻¹ s⁻¹; Kd (Cynomolgus FGF19): 0.087 nM; koff (Cynomolgus FGF19): 6.6e-05 s⁻¹; kon (Cynomolgus FGF19): 760000 M⁻¹ s⁻¹; IC50 (Human FGF19 [4]): 4.5 nM; IC50 (Human FGF19 [5]): 0.675 µg/mL
1A6-graft (direct HVR-graft of 1A6), expressed as IgG (antibody, V domains shown, Tested as IgG produced in 293 cells; also called 1A6 grafted antibody; 1A6 HVR graft) VH: EVQLVESGGGLVQPGGSLRLSCAASGFSLTTYGVHWVRQAPGKGLEWVGVIWPGGGTDYNAAFISRFTISRDNSKNTLYLQMNSLRAEDTAVYYCVRKEYANLYAMDYWGQGTLVTVSS VL: DIQMTQSPSSLSASVGDRVTITCKASQDINSFLSWYQQKPGKAPKLLIYRANRLVDGVPSRFSGSGSGTDFTLTISSLQPEDFATYYCLQYDEFPLTFGQGTKVEIKR | 58.1 fold | 24.8 fold | 2.3 fold | Kd (Human FGF19 [1]): 2.09 nM; koff (Human FGF19 [1]): 0.000124 s⁻¹; kon (Human FGF19 [1]): 59300 M⁻¹ s⁻¹; fold reduction of binding affinity relative to chimeric 1A6 (Human FGF19 [6]): > 50 fold
hu1A6.A100bP/M100kS (HVR-H3) (antibody, name in Kabat numbering, V domains shown, also called A100bP/M100cS) VH: EVQLVESGGGLVQPGGSLRLSCAASGFSLTTYGVHWVRQAPGKGLEWVGVIWPGGGTDYNAAFISRFTISRDNSKNTLYLQMNSLRAEDTAVYYCVRKEYANLYPSDYWGQGTLVTVSS VL: DIQMTQSPSSLSASVGDRVTITCKASQDINSFLSWYQQKPGKAPKLLIYRANRLVDGVPSRFSGSGSGTDFTLTISSLQPEDFATYYCLQYDEFPLTFGQGTKVEIKR | 0.9 fold | 1.7 fold | 0.5 fold | –
hu1A6.A100bR (HVR-H3) (antibody, name in Kabat numbering, V domains shown) VH: EVQLVESGGGLVQPGGSLRLSCAASGFSLTTYGVHWVRQAPGKGLEWVGVIWPGGGTDYNAAFISRFTISRDNSKNTLYLQMNSLRAEDTAVYYCVRKEYANLYRMDYWGQGTLVTVSS VL: DIQMTQSPSSLSASVGDRVTITCKASQDINSFLSWYQQKPGKAPKLLIYRANRLVDGVPSRFSGSGSGTDFTLTISSLQPEDFATYYCLQYDEFPLTFGQGTKVEIKR | 2.3 fold | 2.6 fold | 0.9 fold | –
hu1A6.H35Q (HVR-H1) (antibody, name in Kabat numbering, V domains shown) VH: EVQLVESGGGLVQPGGSLRLSCAASGFSLTTYGVQWVRQAPGKGLEWVGVIWPGGGTDYNAAFISRFTISRDNSKNTLYLQMNSLRAEDTAVYYCVRKEYANLYAMDYWGQGTLVTVSS VL: DIQMTQSPSSLSASVGDRVTITCKASQDINSFLSWYQQKPGKAPKLLIYRANRLVDGVPSRFSGSGSGTDFTLTISSLQPEDFATYYCLQYDEFPLTFGQGTKVEIKR | 6.6 fold | 5 fold | 1.3 fold | –
hu1A6.Q90S (HVR-L3) (antibody, V domains shown) VH: EVQLVESGGGLVQPGGSLRLSCAASGFSLTTYGVHWVRQAPGKGLEWVGVIWPGGGTDYNAAFISRFTISRDNSKNTLYLQMNSLRAEDTAVYYCVRKEYANLYAMDYWGQGTLVTVSS VL: DIQMTQSPSSLSASVGDRVTITCKASQDINSFLSWYQQKPGKAPKLLIYRANRLVDGVPSRFSGSGSGTDFTLTISSLQPEDFATYYCLSYDEFPLTFGQGTKVEIKR | 16 fold | 10.4 fold | 1.5 fold | –
hu1A6.S34A/D56S (HVR-L1/L2) (antibody, V domains shown, Humanized 1A6 variant as IgG) VH: EVQLVESGGGLVQPGGSLRLSCAASGFSLTTYGVHWVRQAPGKGLEWVGVIWPGGGTDYNAAFISRFTISRDNSKNTLYLQMNSLRAEDTAVYYCVRKEYANLYAMDYWGQGTLVTVSS VL: DIQMTQSPSSLSASVGDRVTITCKASQDINSFLAWYQQKPGKAPKLLIYRANRLVSGVPSRFSGSGSGTDFTLTISSLQPEDFATYYCLQYDEFPLTFGQGTKVEIKR | – | – | – | Kd (Human FGF19 [3]): 0.118 nM; koff (Human FGF19 [3]): 4.6e-05 s⁻¹; kon (Human FGF19 [3]): 390000 M⁻¹ s⁻¹; Kd (Cynomolgus FGF19): 0.481 nM; koff (Cynomolgus FGF19): 7.7e-05 s⁻¹; kon (Cynomolgus FGF19): 160000 M⁻¹ s⁻¹
hu1A6.S34G/D56S (HVR-L1/L2) (antibody, V domains shown, Humanized 1A6 variant as IgG) VH: EVQLVESGGGLVQPGGSLRLSCAASGFSLTTYGVHWVRQAPGKGLEWVGVIWPGGGTDYNAAFISRFTISRDNSKNTLYLQMNSLRAEDTAVYYCVRKEYANLYAMDYWGQGTLVTVSS VL: DIQMTQSPSSLSASVGDRVTITCKASQDINSFLGWYQQKPGKAPKLLIYRANRLVSGVPSRFSGSGSGTDFTLTISSLQPEDFATYYCLQYDEFPLTFGQGTKVEIKR | – | – | – | Kd (Human FGF19 [3]): 0.114 nM; koff (Human FGF19 [3]): 1.6e-05 s⁻¹; kon (Human FGF19 [3]): 140000 M⁻¹ s⁻¹; Kd (Cynomolgus FGF19): 0.906 nM; koff (Cynomolgus FGF19): 4.8e-05 s⁻¹; kon (Cynomolgus FGF19): 53000 M⁻¹ s⁻¹
